Data: patent publication US20210163555

What was measured:
[1] = molecular target: Recombinant human p18 (His-p18)

endogenous Ube3a of COS-1 cells
levels of ubiquitinated p18 after Ube3a siRNA KD (His-ubiquitin pull-down assay) (Flag-p18): 100.0±1.8 vs. 66.8±3.7

B1: His6-E6AP (protein)
chain: MEKLHQCYWKSGEPQSDDIEASRMKRAAAKHLIERYYHQLTEGCGNEACTNEFCASCPTFLRMDNNAAAIKALELYKINAKLCDPHPSKKGASSAYLENSKGAPNNSCSEIKMNKKGARIDFKDVTYLTEEKVYEILELCREREDYSPLIRVIGRVFSSAEALVQSFRKVKQHTKEELKSLQAKDEDKDEDEKEKAACSAAAMEEDSEASSSRIGDSSQGDNNLQKLGPDDVSVDIDAIRRVYTRLLSNEKIETAFLNALVYLSPNVECDLTYHNVYSRDPNYLNLFIIVMENRNLHSPEYLEMALPLFCKAMSKLPLAAQGKLIRLWSKYNADQIRRMMETFQQLITYKVISNEFNSRNLVNDDDAIVAASKCLKMVYYANVVGGEVDTNHNEEDDEEPIPESSELTLQELLGEERRNKKGPRVDPLETELGVKTLDCRKPLIPFEEFINEPLNEVLEMDKDYTFFKVETENKFSFMTCPFILNAVTKNLGLYYDNRIRMYSERRITVLYSLVQGQQLNPYLRLKVRRDHIIDDALVRLEMIAMENPADLKKQLYVEFEGEQGVDEGGVSKEFFQLVVEEIFNPDIGMFTYDESTKLFWFNPSSFETEGQFTLIGIVLGLAIYNNCILDVHFPMVVYRKLMGKKGTFRDLGDSHPVLYQSLKDLLEYEGNVEDDMMITFQISQTDLFGNPMMYDLKENGDKIPITNENRKEFVNLYSDYILNKSVEKQFKAFRRGFHMVTNESPLKYLFRPEEIELLICGSRNLDFQALEETTEYDGGYTRDSVLIREFWEIVHSFTDEQKRLFLQFTTGTDRAPVGGLGKLKMIIAKNGPDTERLPTSHTCFNVLLLPEYSSKEKLKERLLKAITYAKGFGML
in vitro ubiquitination of p18 (Western blot) [1]: p18 ubiquitination was only observed in the presence of Ube3a, ubiquitin, E1, E2, and ATP
